The values below come from patent publication US20140087995A1 (published 2014).

By IC50 is commonly meant the concentration at which inhibition is half-maximal.

The target of assay [1] is T1, rat calcitonin receptor (rat, UniProt P32214 25-516).
T1 construct: whole, on cells; Used as membranes prepared from the transfected cells (Assay VIII); also called rCTR; rat calcitonin (a) receptor
T1 sequence (looked up): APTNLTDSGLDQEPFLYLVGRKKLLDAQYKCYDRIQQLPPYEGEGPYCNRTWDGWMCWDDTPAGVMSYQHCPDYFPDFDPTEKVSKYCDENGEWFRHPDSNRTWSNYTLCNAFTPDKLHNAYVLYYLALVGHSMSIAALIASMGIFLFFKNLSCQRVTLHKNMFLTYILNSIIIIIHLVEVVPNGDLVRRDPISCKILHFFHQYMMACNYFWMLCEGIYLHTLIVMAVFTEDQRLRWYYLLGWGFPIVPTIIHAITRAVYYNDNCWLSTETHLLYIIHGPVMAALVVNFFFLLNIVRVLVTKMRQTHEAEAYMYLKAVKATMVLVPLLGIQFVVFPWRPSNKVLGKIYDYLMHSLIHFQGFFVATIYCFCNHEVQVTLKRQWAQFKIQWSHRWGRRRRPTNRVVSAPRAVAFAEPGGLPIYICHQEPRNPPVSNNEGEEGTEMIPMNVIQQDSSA
In words: SPA competition binding, displacement of 125I-calcitonin from membranes of BHK tk'ts 13 cells transfected with rat calcitonin receptor (Assay VIII). (In general: In a radioligand displacement assay an active substance lowers the binding of a labelled ligand.)

Assay [2] has as its target T2, rat amylin receptor (rat calcitonin receptor + rat RAMP 3) (rat, UniProt P32214 25-516; Q9JJ73 23-147).
T2 construct: whole, on cells; Used as membranes prepared from the transfected cells (Assay VI); also called rAmylin-R; rat amylin 3(a) receptor
T2 sequence (looked up) 1: T1 sequence (looked up)
T2 sequence (looked up) 2: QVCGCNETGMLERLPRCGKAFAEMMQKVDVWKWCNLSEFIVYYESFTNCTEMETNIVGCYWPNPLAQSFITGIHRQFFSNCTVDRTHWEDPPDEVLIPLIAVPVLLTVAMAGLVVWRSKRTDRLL
In words: SPA competition binding, displacement of 125I-rat amylin from membranes of BHK tk'ts 13 cells transfected with rat calcitonin receptor + rat RAMP 3 (Assay VI).

The target of assay [3] is T1, rat calcitonin receptor. In words: ratio of IC50 on rat calcitonin receptor (Assay VIII) to IC50 on rat amylin receptor (Assay VI).
The target of assay [4] is T3, human calcitonin receptor (human, UniProt P30988 25-474).
T3 construct: whole, on cells; Used as membranes prepared from the transfected cells (Assay VII); also called hCTR; hCT
T3 sequence (looked up): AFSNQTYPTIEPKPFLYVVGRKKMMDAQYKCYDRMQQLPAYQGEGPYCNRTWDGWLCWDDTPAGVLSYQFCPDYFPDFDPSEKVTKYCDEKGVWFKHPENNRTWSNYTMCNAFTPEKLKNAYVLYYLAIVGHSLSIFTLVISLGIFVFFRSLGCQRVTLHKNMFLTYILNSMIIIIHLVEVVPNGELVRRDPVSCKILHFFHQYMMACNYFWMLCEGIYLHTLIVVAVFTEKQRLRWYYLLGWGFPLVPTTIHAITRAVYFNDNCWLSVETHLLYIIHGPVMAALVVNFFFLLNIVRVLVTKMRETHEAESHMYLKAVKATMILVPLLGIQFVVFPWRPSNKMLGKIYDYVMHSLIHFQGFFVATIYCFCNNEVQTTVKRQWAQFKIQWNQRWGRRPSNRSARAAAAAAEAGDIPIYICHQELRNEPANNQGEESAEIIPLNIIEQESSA
Nature of the assay: ratio of IC50 on human calcitonin receptor (Assay VII) to IC50 on human amylin receptor (Assay V). The protocol:
The resulting pellet was resuspended, homogenized and centrifuged (20.000 rpm, 15 min) in a buffer containing 20 mM Na-HEPES and 0.1 mM EDTA (pH 7.4, buffer 2). The resulting pellet was resuspended in buffer 2 and protein concentration was measured (BCA protein Assay, Pierce). The homogenate was kept cold during the whole procedure. The membranes were kept at −80° C. until use. The assay was performed in a 384 well Optiplate (PerkinElmer) in a total volume of 40 ul. Membranes were mixed with SPA beads. Final concentration of membranes 35 ng/μL final and SPA beads was 0.05 mg/well. Test-compounds were dissolved in DMSO and further diluted in assay buffer (50 mM Hepes, pH 7.4, 1 mM CaCl2, 5 mM MgCl₂, 0.1% OA and 0.02% Tween20). […] The final mixture was incubated with shaking at 400 rpm for 120 min at 25° C. prior to centrifugation (1500 rpm, 10 min). Samples were analyzed on TopCounter™ (Packard). The IC₅₀ was calculated using (one site binding competition analysis) GraphPad Prism5 as a measure of receptor affinity.
Membranes were prepared in the following way; the cells were rinsed with PBS and incubated with Versene for approximately 5 min before harvesting. The cells were flushed with PBS and the cell-suspension was centrifuged for 5 min at 1000 rpm. Cells were homogenized (Ultrathurrax) in a buffer containing 20 mM Na-HEPES and 10 mM EDTA (pH 7.4) and centrifuged at 20.000 rpm for 15 min. The resulting pellet was resuspended, homogenized and centrifuged (20.000 rpm, 15 min) in a buffer containing 20 mM Na-HEPES and 0.1 mM EDTA (pH 7.4, buffer 2). The resulting pellet was resuspended in buffer 2 and protein concentration was measured (BCA protein Assay, Pierce). The homogenate was kept cold during the whole procedure. The membranes were kept at −80° C. until use. Assay was performed in a 384 well Optiplate (PerkinElmer) in a total volume of 40 ul. Membranes were mixed with SPA beads.

Numbered stars: 1 amine (or outer) side, 2 acyl side, 3 side chain; on linkers, the order of the positions; unused ones are H or OH. Bridge positions count the residues as written; N and C are the ends. Side chains are listed from the residue outwards. Ends that are not written are not given here. * marks the point of attachment. C20 diacid = O=C(O)CCCCCCCCCCCCCCCCCCC(=O)*; γGlu = O=C(O)[C@H](CCC(=O)[*:2])N[*:1]

B1: N^ε1-[(4S)-4-carboxy-4-(19-carboxynonadecanoylamino)butanoyl]-[Glu14,Arg17,Pro21,Pro27,Arg34,Glu35]-h-amylin (peptide)
peptide: K([γGlu-C20 diacid])CNTATCATQRLAEFLRHSSPNFGAIPSSTNVGRETY-NH2
modifications: disulfide 2-7; N-terminus assumed
SMILES: CC[C@H](C)[C@H](NC(=O)[C@H](C)NC(=O)CNC(=O)[C@H](Cc1ccccc1)NC(=O)[C@H](CC(N)=O)NC(=O)[C@@H]1CCCN1C(=O)[C@H](CO)NC(=O)[C@H](CO)NC(=O)[C@H](Cc1c[nH]cn1)NC(=O)[C@H](CCCNC(=N)N)NC(=O)[C@H](CC(C)C)NC(=O)[C@H](Cc1ccccc1)NC(=O)[C@H](CCC(=O)O)NC(=O)[C@H](C)NC(=O)[C@H](CC(C)C)NC(=O)[C@H](CCCNC(=N)N)NC(=O)[C@H](CCC(N)=O)NC(=O)[C@@H](NC(=O)[C@H](C)NC(=O)[C@@H]1CSSC[C@H](NC(=O)[C@@H](N)CCCCNC(=O)CC[C@H](NC(=O)CCCCCCCCCCCCCCCCCCC(=O)O)C(=O)O)C(=O)N[C@@H](CC(N)=O)C(=O)N[C@@H]([C@@H](C)O)C(=O)N[C@@H](C)C(=O)N[C@@H]([C@@H](C)O)C(=O)N1)[C@@H](C)O)C(=O)N1CCC[C@H]1C(=O)N[C@@H](CO)C(=O)N[C@@H](CO)C(=O)N[C@H](C(=O)N[C@@H](CC(N)=O)C(=O)N[C@H](C(=O)NCC(=O)N[C@@H](CCCNC(=N)N)C(=O)N[C@@H](CCC(=O)O)C(=O)N[C@H](C(=O)N[C@@H](Cc1ccc(O)cc1)C(N)=O)[C@@H](C)O)C(C)C)[C@@H](C)O
notes: not restated for each compound
For the molecule B1, the IC50 in assay [1] amounted to 86.1 nM; in assay [2] it was 1.06 nM. For the same molecule, in assay [3], the “Ratio rCT/rAmylin binding” value came to 81.1. Further, in assay [4], the “Ratio hCT/hAmylin binding” value is 28.5.

B2: N^ε1-[(4S)-4-carboxy-4-(19-carboxynonadecanoylamino)butanoyl]-[His14,Arg17,Pro21,Pro27,Pro31,Pro34]-h-amylin (peptide)
peptide: K([γGlu-C20 diacid])CNTATCATQRLAHFLRHSSPNFGAIPSSTPVGPNTY-NH2
modifications: disulfide 2-7; N-terminus assumed
SMILES: CC[C@H](C)[C@H](NC(=O)[C@H](C)NC(=O)CNC(=O)[C@H](Cc1ccccc1)NC(=O)[C@H](CC(N)=O)NC(=O)[C@@H]1CCCN1C(=O)[C@H](CO)NC(=O)[C@H](CO)NC(=O)[C@H](Cc1c[nH]cn1)NC(=O)[C@H](CCCNC(=N)N)NC(=O)[C@H](CC(C)C)NC(=O)[C@H](Cc1ccccc1)NC(=O)[C@H](Cc1c[nH]cn1)NC(=O)[C@H](C)NC(=O)[C@H](CC(C)C)NC(=O)[C@H](CCCNC(=N)N)NC(=O)[C@H](CCC(N)=O)NC(=O)[C@@H](NC(=O)[C@H](C)NC(=O)[C@@H]1CSSC[C@H](NC(=O)[C@@H](N)CCCCNC(=O)CC[C@H](NC(=O)CCCCCCCCCCCCCCCCCCC(=O)O)C(=O)O)C(=O)N[C@@H](CC(N)=O)C(=O)N[C@@H]([C@@H](C)O)C(=O)N[C@@H](C)C(=O)N[C@@H]([C@@H](C)O)C(=O)N1)[C@@H](C)O)C(=O)N1CCC[C@H]1C(=O)N[C@@H](CO)C(=O)N[C@@H](CO)C(=O)N[C@H](C(=O)N1CCC[C@H]1C(=O)N[C@H](C(=O)NCC(=O)N1CCC[C@H]1C(=O)N[C@@H](CC(N)=O)C(=O)N[C@H](C(=O)N[C@@H](Cc1ccc(O)cc1)C(N)=O)[C@@H](C)O)C(C)C)[C@@H](C)O
notes: as for B1
Consider B2, for which the IC50 in assay [1] is 9.05 nM; in assay [2], 0.125 nM. Besides, the “Ratio rCT/rAmylin binding” value in assay [3] amounted to 72.4. Moreover, the “Ratio hCT/hAmylin binding” value in assay [4] amounted to 24.8.

B3: N^ε1-[(4S)-4-carboxy-4-[[(4S)-4-carboxy-4-(19-carboxynonadecanoylamino)butanoyl]amino]butanoyl]-[Arg17,Pro21,Pro27,Pro31,Pro34,Arg35]-h-amylin (peptide)
peptide: K([γGlu-γGlu-C20 diacid])CNTATCATQRLANFLRHSSPNFGAIPSSTPVGPRTY-NH2
modifications: disulfide 2-7; N-terminus assumed
SMILES: CC[C@H](C)[C@H](NC(=O)[C@H](C)NC(=O)CNC(=O)[C@H](Cc1ccccc1)NC(=O)[C@H](CC(N)=O)NC(=O)[C@@H]1CCCN1C(=O)[C@H](CO)NC(=O)[C@H](CO)NC(=O)[C@H](Cc1c[nH]cn1)NC(=O)[C@H](CCCNC(=N)N)NC(=O)[C@H](CC(C)C)NC(=O)[C@H](Cc1ccccc1)NC(=O)[C@H](CC(N)=O)NC(=O)[C@H](C)NC(=O)[C@H](CC(C)C)NC(=O)[C@H](CCCNC(=N)N)NC(=O)[C@H](CCC(N)=O)NC(=O)[C@@H](NC(=O)[C@H](C)NC(=O)[C@@H]1CSSC[C@H](NC(=O)[C@@H](N)CCCCNC(=O)CC[C@H](NC(=O)CC[C@H](NC(=O)CCCCCCCCCCCCCCCCCCC(=O)O)C(=O)O)C(=O)O)C(=O)N[C@@H](CC(N)=O)C(=O)N[C@@H]([C@@H](C)O)C(=O)N[C@@H](C)C(=O)N[C@@H]([C@@H](C)O)C(=O)N1)[C@@H](C)O)C(=O)N1CCC[C@H]1C(=O)N[C@@H](CO)C(=O)N[C@@H](CO)C(=O)N[C@H](C(=O)N1CCC[C@H]1C(=O)N[C@H](C(=O)NCC(=O)N1CCC[C@H]1C(=O)N[C@@H](CCCNC(=N)N)C(=O)N[C@H](C(=O)N[C@@H](Cc1ccc(O)cc1)C(N)=O)[C@@H](C)O)C(C)C)[C@@H](C)O
notes: as for B1
On to B3, for which the half-maximal inhibitory concentration (IC50) in assay [1] is 52.4 nM; in assay [2] it was 0.381 nM. Further, the “Ratio rCT/rAmylin binding” value in assay [3] is 137. In assay [4], the “Ratio hCT/hAmylin binding” value is 48.6.

B4: N^ε1-[(4S)-4-carboxy-4-(19-carboxynonadecanoylamino)butanoyl]-[Glu14,Arg17,Pro21,Pro27,Pro34,His35]-h-amylin (peptide)
peptide: K([γGlu-C20 diacid])CNTATCATQRLAEFLRHSSPNFGAIPSSTNVGPHTY-NH2
modifications: disulfide 2-7
notes: as for B1
As to B4, the IC50 in assay [1] turned out to be 5.43 nM; in assay [2] it was 0.104 nM. Also, the “Ratio rCT/rAmylin binding” value in assay [3] stood at 52.2. In assay [4], the “Ratio hCT/hAmylin binding” value stood at 21.2.

B5: N^ε1-[(4S)-4-carboxy-4-(19-carboxynonadecanoylamino)butanoyl]-[Glu14,Arg17,Pro21,Pro27,His35]-h-amylin (peptide)
peptide: K([γGlu-C20 diacid])CNTATCATQRLAEFLRHSSPNFGAIPSSTNVGSHTY-NH2
modifications: disulfide 2-7; N-terminus assumed
SMILES: CC[C@H](C)[C@H](NC(=O)[C@H](C)NC(=O)CNC(=O)[C@H](Cc1ccccc1)NC(=O)[C@H](CC(N)=O)NC(=O)[C@@H]1CCCN1C(=O)[C@H](CO)NC(=O)[C@H](CO)NC(=O)[C@H](Cc1c[nH]cn1)NC(=O)[C@H](CCCNC(=N)N)NC(=O)[C@H](CC(C)C)NC(=O)[C@H](Cc1ccccc1)NC(=O)[C@H](CCC(=O)O)NC(=O)[C@H](C)NC(=O)[C@H](CC(C)C)NC(=O)[C@H](CCCNC(=N)N)NC(=O)[C@H](CCC(N)=O)NC(=O)[C@@H](NC(=O)[C@H](C)NC(=O)[C@@H]1CSSC[C@H](NC(=O)[C@@H](N)CCCCNC(=O)CC[C@H](NC(=O)CCCCCCCCCCCCCCCCCCC(=O)O)C(=O)O)C(=O)N[C@@H](CC(N)=O)C(=O)N[C@@H]([C@@H](C)O)C(=O)N[C@@H](C)C(=O)N[C@@H]([C@@H](C)O)C(=O)N1)[C@@H](C)O)C(=O)N1CCC[C@H]1C(=O)N[C@@H](CO)C(=O)N[C@@H](CO)C(=O)N[C@H](C(=O)N[C@@H](CC(N)=O)C(=O)N[C@H](C(=O)NCC(=O)N[C@@H](CO)C(=O)N[C@@H](Cc1c[nH]cn1)C(=O)N[C@H](C(=O)N[C@@H](Cc1ccc(O)cc1)C(N)=O)[C@@H](C)O)C(C)C)[C@@H](C)O
notes: as for B1
Turning to B5, the IC50 was 26.3 nM in assay [1] and 1.16 nM in assay [2]. Moreover, in assay [3], the “Ratio rCT/rAmylin binding” value came out at 22.7. Also, in assay [4], the “Ratio hCT/hAmylin binding” value was 26.4.
